According to US20250381269A1 (FORTVITA BIOLOGICS SINGAPORE PTE, published 2025):
One block for each binder: values may come before it.

Columns and labels:
[1] = target: T1, human EGFR (EGR-H5222, Acro Biosystem) (human, UniProt P00533 25-645); assay: BLI (Octet Red96e), antibody captured on AHC sensor, human EGFR 100 nM in solution
T1 construct: Bought reagent; also called antigen A

[2] = target: T2, human B7H3 (B73-H52E2, Acro Biosystem) (human, UniProt Q5ZPR3-2 29-245); assay: BLI (Octet Red96e), antibody captured on AHC sensor, human B7H3 100 nM in solution
T2 construct: also called CD276; antigen B
T2 sequence (looked up): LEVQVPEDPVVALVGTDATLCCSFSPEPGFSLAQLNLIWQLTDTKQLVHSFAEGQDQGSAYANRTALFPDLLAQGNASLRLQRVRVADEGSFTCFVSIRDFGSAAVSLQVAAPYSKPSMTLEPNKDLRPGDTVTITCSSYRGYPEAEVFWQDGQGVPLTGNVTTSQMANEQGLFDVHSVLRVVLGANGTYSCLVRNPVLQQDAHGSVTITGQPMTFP

[3] = target: EGFR L858R/T790M on H1975 cells (UniProt P00533 25-1210, limits assumed); assay: cell-based or functional assay
[4] = target: EGFR R521K/Y1069C on CCK-81 cells (UniProt P00533 25-1210, limits assumed); assay: cell-based or functional assay
[5] = target: EGFR, wild type, on tumour cells (H508, TE-1, Colo-680N, H292, H322, H358; amplified in SK-MES-1 and H1703) (UniProt P00533 25-1210, limits assumed); assay: cell-based or functional assay
[6] = target: EGFR Del19 (amplified) on H1650 cells (UniProt P00533 25-1210); assay: cell-based or functional assay
[7] = target: EGFR R521K on HT-55 and LS180 cells (UniProt P00533 25-1210, limits assumed); assay: cell-based or functional assay

Kd [1]: 4.59 nM | Kd [2]: 2.48 nM | IC50(nM), proliferation inhibition, H1975 cells [3]: 0.99 nM | IC50(nM), proliferation inhibition, CCK-81 cells [4]: 0.24 nM | IC50(nM), proliferation inhibition, Colo-680N cells [5]: 12.3 nM | IC50(nM), proliferation inhibition, H292 cells [5]: 57.8 nM | IC50(nM), proliferation inhibition, H508 cells [5]: 1.08 nM | IC50(nM), proliferation inhibition, SK-MES-1 cells (EGFR amplification) [5]: 0.4 nM | IC50(nM), proliferation inhibition, TE-1 cells [5]: 16 nM | IC50(nM), proliferation inhibition, H1650 cells [6]: 4.86 nM | IC50(nM), proliferation inhibition, HT-55 cells [7]: 0.14 nM | IC50(nM), proliferation inhibition, LS180 cells [7]: 1.33 nM
B1: Hz20G5.26/Zalu bsAb bispecific antibody molecule (bispecific antibody, human IgG1, kappa)
heavy 1: not shown
light 1: not shown
heavy 2: not shown
light 2: DIQLTQSPSFLSASVGDRVTITCSASSSVSYIHWYQQKPGKAPKRWIYDTSRLASGVPSRFSGSGSGTEFTLTISSLQPEDFATYYCQQWSSAPLTFGGGTKVEIKRTVAAPSVFIFPPSDEQLKSGTASVVCLLNNFYPREAKVQWKVDNALQSGNSQESVTEQDSKDSTYSLSSTLTLSKADYEKHKVYACEVTHQGLSSPVTKSFNRGEC
notes: also called anti-B7-H3/EGFR bispecific antibody

Kd [1]: 4.69 nM | koff [1]: 0.00124 s⁻¹ | kon [1]: 264000 M⁻¹ s⁻¹ | Kd [2]: 8.25 nM | koff [2]: 0.00352 s⁻¹ | kon [2]: 427000 M⁻¹ s⁻¹
B2: Hz5C2.9/Zalu bsAb bispecific antibody molecule (bispecific antibody, human IgG1, kappa)
heavy 1: not shown
light 1: not shown
heavy 2: not shown
light 2: EIVLTQSPGTLSLSPGERATLSCRSSQSLVHSQGITYLDWYQQKPGQAPRLLIYKVSNRFSGIPDRFSGSGSGTDFTLTISRLEPEDFAVYYCSQGTHVPPWTFGGGTKVEIKRTVAAPSVFIFPPSDEQLKSGTASVVCLLNNFYPREAKVQWKVDNALQSGNSQESVTEQDSKDSTYSLSSTLTLSKADYEKHKVYACEVTHQGLSSPVTKSFNRGEC
notes: IgG1-like, four polypeptide chains, Innobody heterodimer Fc mutations; low fucose (GlymaxX)

Kd [1]: 4.19 nM | koff [1]: 0.00121 s⁻¹ | kon [1]: 289000 M⁻¹ s⁻¹ | Kd [2]: 6.73 nM | koff [2]: 0.00219 s⁻¹ | kon [2]: 326000 M⁻¹ s⁻¹
B3: Hz19A2.25/Zalu bsAb bispecific antibody molecule (bispecific antibody, human IgG1, kappa)
heavy 1: not shown
light 1: not shown
heavy 2: not shown
light 2: EIVLTQSPATLSLSPGERATLSCSVSSSVQSNYLYWYQQKPGQAPRLLIYGTSNLASGIPARFSGSGSGTDFTLTISSLEPEDFAVYYCYQWSSYPFTFGQGTKLEIKRTVAAPSVFIFPPSDEQLKSGTASVVCLLNNFYPREAKVQWKVDNALQSGNSQESVTEQDSKDSTYSLSSTLTLSKADYEKHKVYACEVTHQGLSSPVTKSFNRGEC
notes: as for B2
